Results: patent publication US20170313754A1 (PROTAGONIST THERAPEUTICS, published 2017)
Bridge positions count the residues as written; N and C are the ends. * marks the point of attachment. Isovaleryl = CC(C)CC(=O)*

T1: human ferroportin (SLC40A1) fused in frame with GFP, stably expressed in HEK293 cells (human, UniProt Q9NP59 1-571)
T1 sequence (looked up): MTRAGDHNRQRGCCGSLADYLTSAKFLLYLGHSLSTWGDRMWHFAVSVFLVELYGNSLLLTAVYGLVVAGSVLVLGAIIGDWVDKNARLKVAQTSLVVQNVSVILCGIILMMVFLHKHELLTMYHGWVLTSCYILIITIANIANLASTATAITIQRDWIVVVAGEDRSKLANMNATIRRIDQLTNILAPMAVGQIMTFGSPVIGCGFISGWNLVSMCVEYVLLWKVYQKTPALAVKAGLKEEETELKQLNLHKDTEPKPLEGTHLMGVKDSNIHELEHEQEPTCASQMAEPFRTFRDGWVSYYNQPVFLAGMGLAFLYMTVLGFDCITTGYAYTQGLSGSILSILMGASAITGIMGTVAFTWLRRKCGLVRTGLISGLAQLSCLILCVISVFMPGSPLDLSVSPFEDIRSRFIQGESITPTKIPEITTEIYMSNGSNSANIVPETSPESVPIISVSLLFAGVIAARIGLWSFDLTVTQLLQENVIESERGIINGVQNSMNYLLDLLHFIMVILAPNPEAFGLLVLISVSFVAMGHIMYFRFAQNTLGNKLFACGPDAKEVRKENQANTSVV

T2: human ferroportin (SLC40A1) fused in frame with GFP, stably expressed on HEK293 cells (human, UniProt Q9NP59 1-571)
T2 sequence (looked up): T1 sequence (looked up)

B1: Hy-DTHFPCI-K(IVA)-FGPRSKGWVCK-NH2 (peptide)
peptide: H-DTHFPCIK(Isovaleryl)FGPRSKGWVCK-NH2
modifications: disulfide 6-18 (inferred)
B2: Hy-DTHFPCIKF-K(IVA)-PRSKGWVCK-NH2 (peptide)
peptide: DTHFPCIKFKPRSKGWVCK
modifications: IVA (isovaleric acid) on the side chain of Lys 10; C-terminal amide
B3: Hy-DTHFPCIDFGPRSKGWVCK-NH2 (peptide)
peptide: H-DTHFPCIDFGPRSKGWVCK-NH2
modifications: disulfide 6-18 (inferred)
B4: Hy-DTHFPCINFGPRSKGWVCK-NH2 (peptide)
peptide: H-DTHFPCINFGPRSKGWVCK-NH2
modifications: disulfide 6-18 (inferred)
B5: Hy-DTHFVCIIF-NH2 (peptide)
peptide: H-DTHFVCIIF-NH2
B6: Hy-DPHFPCIIF-NH2 (peptide)
peptide: H-DPHFPCIIF-NH2
B7: Hy-ATHFPCIIF-NH2 (peptide)
peptide: H-ATHFPCIIF-NH2
B8: Isovaleric acid-DTHFPCIIF-[Sarc]-PHSKG[N-MeTrp]-VC-NH2 (peptide)
peptide: DTHFPCIIFXPHSKGWVC
modifications: N-terminal isovaleric acid; Sarc at 10; N-MeTrp at 16; C-terminal amide
B9: Hy-DTHKPCIIF-NH2 (peptide)
peptide: H-DTHKPCIIF-NH2
B10: Hy-DTHFPCIIY-NH2 (peptide)
peptide: H-DTHFPCIIY-NH2
B11: Hy-DTHFPCIIFGPRSRGHVCK-NH2 (peptide)
peptide: H-DTHFPCIIFGPRSRGHVCK-NH2
modifications: not fully specified (bridges); printed as Hy-DTHFPCIIFGPRSRGHVCK-NH2; cysteine pairing not given here
B12: Isovaleric acid-DTHFPCIIF-[Sarc]-PRSKG[N-MeTrp]-VC-NH2 (peptide)
peptide: DTHFPCIIFXPRSKGWVC
modifications: N-terminal isovaleric acid; Sarc at 10; N-MeTrp at 16; C-terminal amide
B13: Hy-DTHFPCIEY-NH2 (peptide)
peptide: H-DTHFPCIEY-NH2
B14: Hy-DTHFPCIIFAA-NH2 (peptide)
peptide: H-DTHFPCIIFAA-NH2
B15: Hy-ADHFPCIIF-NH2 (peptide)
peptide: H-ADHFPCIIF-NH2
B16: Isovaleric acid-DTHFECIIFGPRSKGWVCK-NH2 (peptide)
peptide: Isovaleryl-DTHFECIIFGPRSKGWVCK-NH2
modifications: not fully specified (bridges); cysteine pairing not given here
B17: Hy-DTHFPCILY-NH2 (peptide)
peptide: H-DTHFPCILY-NH2
B18: Isovaleric acid-DTHFGCIKFEPRSKEWVCK-NH2 (peptide)
peptide: Isovaleryl-DTHFGCIKFEPRSKEWVCK-NH2
modifications: not fully specified (bridges); cysteine pairing not given here
B19: Hy-DTHFPCIIFAC-NH2 (peptide)
peptide: H-DTHFPCIIFAC-NH2
modifications: disulfide 6-11 (inferred)
B20: Hy-DTHFPCIIT-NH2 (peptide)
peptide: H-DTHFPCIIT-NH2
B21: Hy-DTHFPCIIFGPRSKGWNCK-NH2 (peptide)
peptide: H-DTHFPCIIFGPRSKGWNCK-NH2
modifications: not fully specified (bridges); printed as Hy-DTHFPCIIFGPRSKGWNCK-NH2; cysteine pairing not given here

What follows are binders tested against T1, human ferroportin (SLC40A1) fused in … (assay: cell-based or functional assay).
B1 was tested, and the “Potency EC50” value was > 500 nM.
In the case of B2, the “Potency EC50” value is reported as > 500 nM.

What follows are binders tested against T2, human ferroportin (SLC40A1) fused in … (assay: cell-based or functional assay).
B3 was tested, and the “Ferroportin internalization assay EC50” value was > 1000 nM.
In the case of B4, the “Ferroportin internalization assay EC50” value is reported as > 1000 nM.
With B5 the “percent at the stated concentration, ferroportin internalization assay” value (“percent at the stated concentration” below) was 50 % at 10 uM.
In the case of B6, the “percent at the stated concentration” value is reported as 64 % at 10 uM.
With B7 the “Ferroportin internalization assay EC50” value was > 1000 nM.
In the case of B8, the “Ferroportin internalization assay EC50” value is reported as 9 nM.
In the case of B9, the “percent at the stated concentration” value is reported as 45 % at 10 uM.
With B10 the “percent at the stated concentration” value was 75 % at 10 uM.
For B11, the “Ferroportin internalization assay EC50” value was > 1000 nM.
In the case of B12, the “Ferroportin internalization assay EC50” value is reported as 10 nM.
B13 was tested, and the “percent at the stated concentration” value was 8 % at 1 uM.
B14 was tested, and the “percent at the stated concentration” value was 59 % at 1 uM.
In the case of B15, the “Ferroportin internalization assay EC50” value is reported as > 1000 nM.
For B16, the “Ferroportin internalization assay EC50” value was > 1000 nM.
With B17 the “percent at the stated concentration” value was 85 % at 1 uM.
In the case of B18, the “Ferroportin internalization assay EC50” value is reported as > 1000 nM.
In the case of B19, the “Ferroportin internalization assay EC50” value is reported as > 1000 nM.
For B20, the “percent at the stated concentration” value was 23 % at 1 uM.
With B21 the “Ferroportin internalization assay EC50” value was > 1000 nM.
